The record followed here is article PMC2120550.

This assay has as its target lysin from the pink abalone (H. corrugata) (Haliotis corrugata (pink abalone)). In words: cross-linking.

Sequence of lysin from the pink abalone (H. corrugata) (natural protein) (P19448 19-155 limits assumed): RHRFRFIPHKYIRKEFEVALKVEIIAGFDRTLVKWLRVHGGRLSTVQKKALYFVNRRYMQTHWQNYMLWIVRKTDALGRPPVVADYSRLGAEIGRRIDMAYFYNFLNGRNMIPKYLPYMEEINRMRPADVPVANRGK

In general, stoichiometry N refers to the number of molecules, sites or subunits per partner or assembly. As to “lysin from the pink abalone (H. corrugata) (natural protein)”, the stoichiometry N turned out to be 2.
